From article PMC7111185 (Biochemical and Biophysical Research Communications, 2004) come the findings set out here.

This test concerns the target 30a-HR1 (His-tagged heptad repeat 1 region of SARS-CoV spike protein, amino acids 898-1005) (SARS-CoV, UniProt P59594 898-1005). Nature of the test: pull-down.

In the case of GDISGINASVVNIQKEIDRLNEVAKNLNESLIDLQELG (domain or fragment) [GST-HR2-38 (GST fusion of SARS-CoV spike HR2, amino acids 1149-1186)], the binding result is on record as “binds”.
